Consider 28 substances from patent publication US20260184748A1, “COMPOSITIONS COMPRISING OCTADECANEUROPEPTIDES (ODN) AND SYNTHETIC DERIVATIVES THEREOF AND METHODS OF USE FOR MODULATION OF FOOD INTAKE, OBESITY, BODY WEIGHT, NAUSEA, AND EMESIS” (The Trustees of the University of Pennsylvania, priority 2022, published 2026).

Among the targets are CX3CR1 (UniProt P49238); CXCR2 (UniProt P25025); GPR1 (UniProt P46091); PRLHR (UniProt P49683); TRHR (UniProt P34981); MLNR (UniProt O43193); GRPR (UniProt P30550); BRS3 (UniProt P32247); CALCR-RAMP2 (UniProt P30988); CCR9 (UniProt P51686); NPY1R (UniProt P25929); CCR7 (UniProt P32248); GLP2R (UniProt O95838); BDKRB2 (UniProt P30411); CCR5 (UniProt P51681); VIPR1 (UniProt P32241); KISS1R (UniProt Q969F8); SCTR (UniProt P47872); CCR3 (UniProt P51677); HCRTR2 (UniProt O43614); C5L2 (UniProt Q9P296); C5aR1 (UniProt P21730); CCR2 (UniProt P41597); GIPR (UniProt P48546); BDKRB1 (UniProt P46663); OXTR (UniProt P30559).

Experiment in all cases: cell-based or functional assay
A further assay addresses T1, CXCR1 (UniProt P25024).
T1 sequence (looked up): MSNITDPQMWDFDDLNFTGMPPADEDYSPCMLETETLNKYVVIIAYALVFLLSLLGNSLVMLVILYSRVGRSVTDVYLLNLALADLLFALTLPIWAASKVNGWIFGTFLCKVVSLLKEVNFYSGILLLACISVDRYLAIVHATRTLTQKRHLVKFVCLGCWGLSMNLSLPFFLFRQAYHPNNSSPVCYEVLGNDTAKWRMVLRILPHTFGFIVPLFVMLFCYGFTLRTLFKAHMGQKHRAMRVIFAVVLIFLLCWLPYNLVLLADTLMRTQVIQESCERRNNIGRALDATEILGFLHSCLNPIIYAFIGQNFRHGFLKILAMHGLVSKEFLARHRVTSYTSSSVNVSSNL

Another assay addresses T2, CALCR (UniProt P30988).
T2 sequence (looked up): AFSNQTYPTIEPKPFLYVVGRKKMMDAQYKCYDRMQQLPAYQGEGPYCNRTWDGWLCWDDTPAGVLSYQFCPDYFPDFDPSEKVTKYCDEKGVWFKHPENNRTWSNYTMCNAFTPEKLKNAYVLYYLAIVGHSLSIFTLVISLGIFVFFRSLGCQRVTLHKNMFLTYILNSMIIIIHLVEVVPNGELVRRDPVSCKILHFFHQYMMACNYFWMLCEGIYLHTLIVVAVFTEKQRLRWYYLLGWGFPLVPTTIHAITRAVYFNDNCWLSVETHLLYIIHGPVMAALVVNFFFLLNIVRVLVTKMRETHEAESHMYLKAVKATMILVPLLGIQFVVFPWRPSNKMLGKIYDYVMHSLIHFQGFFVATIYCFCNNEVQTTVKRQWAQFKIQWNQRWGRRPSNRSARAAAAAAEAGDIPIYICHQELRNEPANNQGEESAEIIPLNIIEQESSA

The target in a further assay is T3, CALCR-RAMP3 (UniProt P30988).
T3 sequence (looked up) 1: T2 sequence (looked up)
T3 sequence (looked up) 2: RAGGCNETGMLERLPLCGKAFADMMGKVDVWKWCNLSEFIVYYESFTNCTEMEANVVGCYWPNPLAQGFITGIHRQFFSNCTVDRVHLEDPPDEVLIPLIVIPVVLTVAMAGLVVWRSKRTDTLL

For a further assay, the target named is T4, CCR1 (UniProt P32246).
T4 sequence (looked up): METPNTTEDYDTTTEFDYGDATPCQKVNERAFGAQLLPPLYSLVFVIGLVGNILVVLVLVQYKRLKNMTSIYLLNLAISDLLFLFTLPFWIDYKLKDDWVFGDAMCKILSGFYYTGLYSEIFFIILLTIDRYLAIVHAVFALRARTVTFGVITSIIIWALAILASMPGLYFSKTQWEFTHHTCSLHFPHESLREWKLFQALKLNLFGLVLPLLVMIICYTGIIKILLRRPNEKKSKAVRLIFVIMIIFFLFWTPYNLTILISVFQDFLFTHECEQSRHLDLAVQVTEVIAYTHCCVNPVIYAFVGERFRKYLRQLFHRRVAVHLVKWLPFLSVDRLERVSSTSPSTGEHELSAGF

In another assay the target is T5, CCR6 (UniProt P51684).
T5 sequence (looked up): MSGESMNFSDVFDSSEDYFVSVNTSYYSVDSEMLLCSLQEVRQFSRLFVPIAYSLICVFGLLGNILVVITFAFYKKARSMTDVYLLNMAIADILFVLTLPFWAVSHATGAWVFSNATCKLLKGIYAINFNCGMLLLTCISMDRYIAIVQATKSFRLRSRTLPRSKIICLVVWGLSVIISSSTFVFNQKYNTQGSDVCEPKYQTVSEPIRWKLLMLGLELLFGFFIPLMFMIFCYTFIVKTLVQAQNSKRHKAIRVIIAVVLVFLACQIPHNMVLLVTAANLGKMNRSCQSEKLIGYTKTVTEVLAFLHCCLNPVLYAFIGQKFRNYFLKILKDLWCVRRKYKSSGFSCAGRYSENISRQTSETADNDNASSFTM

For assay [1], the target named is relaxin-3 receptor (RXFP3) (UniProt Q9NSD7).
Sequence of relaxin-3 receptor (RXFP3) (Q9NSD7 whole entry): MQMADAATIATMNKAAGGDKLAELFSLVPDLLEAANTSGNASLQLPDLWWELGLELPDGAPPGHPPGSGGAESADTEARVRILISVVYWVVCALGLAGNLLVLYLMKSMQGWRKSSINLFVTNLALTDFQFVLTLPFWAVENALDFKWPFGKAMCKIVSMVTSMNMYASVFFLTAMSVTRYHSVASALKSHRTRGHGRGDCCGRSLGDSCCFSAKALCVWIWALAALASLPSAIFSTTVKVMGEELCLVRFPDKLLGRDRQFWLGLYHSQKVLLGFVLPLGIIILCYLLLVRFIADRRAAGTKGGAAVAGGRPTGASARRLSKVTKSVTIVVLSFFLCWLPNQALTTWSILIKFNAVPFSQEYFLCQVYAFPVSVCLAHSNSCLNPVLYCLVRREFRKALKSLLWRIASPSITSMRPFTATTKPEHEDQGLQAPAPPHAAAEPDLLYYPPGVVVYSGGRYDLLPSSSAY
The target of a further assay is T6, GALR2 (UniProt O43603).
T6 sequence (looked up): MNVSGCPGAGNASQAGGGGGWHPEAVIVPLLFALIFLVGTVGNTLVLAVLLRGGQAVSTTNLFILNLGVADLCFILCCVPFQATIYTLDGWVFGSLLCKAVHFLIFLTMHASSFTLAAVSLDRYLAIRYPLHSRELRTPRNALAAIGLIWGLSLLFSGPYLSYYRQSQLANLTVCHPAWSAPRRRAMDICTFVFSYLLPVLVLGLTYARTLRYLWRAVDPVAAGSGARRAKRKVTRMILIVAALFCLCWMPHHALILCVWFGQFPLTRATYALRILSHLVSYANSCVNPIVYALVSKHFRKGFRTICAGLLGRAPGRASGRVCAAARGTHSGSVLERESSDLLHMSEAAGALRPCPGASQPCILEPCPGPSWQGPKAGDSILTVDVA

Sequence of Calcitonin (P01258 85-116 limits assumed): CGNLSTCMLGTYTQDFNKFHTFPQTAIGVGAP
Sequence of CCL3 (P10147 24-92 limits assumed): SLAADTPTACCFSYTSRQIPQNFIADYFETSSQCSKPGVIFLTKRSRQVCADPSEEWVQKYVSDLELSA
Sequence of CXCL8 (P10145 28-99 limits assumed): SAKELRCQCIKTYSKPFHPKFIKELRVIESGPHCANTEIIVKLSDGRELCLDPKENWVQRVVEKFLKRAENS
Sequence of Complement C5a (P01031 678-751 limits assumed): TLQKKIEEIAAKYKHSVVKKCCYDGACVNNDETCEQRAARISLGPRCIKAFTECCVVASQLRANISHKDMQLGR
Sequence of GIPR (P48546 22-466 limits assumed): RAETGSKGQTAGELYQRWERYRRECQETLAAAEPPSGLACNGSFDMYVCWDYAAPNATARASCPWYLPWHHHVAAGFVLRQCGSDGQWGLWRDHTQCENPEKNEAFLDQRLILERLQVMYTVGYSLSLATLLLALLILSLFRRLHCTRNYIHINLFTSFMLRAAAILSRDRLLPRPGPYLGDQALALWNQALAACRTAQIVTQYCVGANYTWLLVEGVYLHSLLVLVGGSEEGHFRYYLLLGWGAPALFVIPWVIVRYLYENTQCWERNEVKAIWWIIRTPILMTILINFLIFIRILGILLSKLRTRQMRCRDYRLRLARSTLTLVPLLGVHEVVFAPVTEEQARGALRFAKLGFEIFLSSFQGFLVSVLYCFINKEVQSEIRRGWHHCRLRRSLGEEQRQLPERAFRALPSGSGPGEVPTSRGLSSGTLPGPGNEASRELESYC
Sequence of BDKRB2 (P30411 whole entry): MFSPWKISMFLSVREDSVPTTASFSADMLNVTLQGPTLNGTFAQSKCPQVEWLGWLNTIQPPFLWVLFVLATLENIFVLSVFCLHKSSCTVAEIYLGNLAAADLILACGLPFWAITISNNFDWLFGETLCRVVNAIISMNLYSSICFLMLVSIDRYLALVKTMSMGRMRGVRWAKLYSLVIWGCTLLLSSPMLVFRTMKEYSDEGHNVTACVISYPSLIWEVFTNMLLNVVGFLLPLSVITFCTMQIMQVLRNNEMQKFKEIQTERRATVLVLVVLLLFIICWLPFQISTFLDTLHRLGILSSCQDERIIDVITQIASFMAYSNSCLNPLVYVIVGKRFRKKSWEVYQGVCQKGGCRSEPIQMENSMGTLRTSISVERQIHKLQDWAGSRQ
Sequence of KISS1R (Q969F8 whole entry): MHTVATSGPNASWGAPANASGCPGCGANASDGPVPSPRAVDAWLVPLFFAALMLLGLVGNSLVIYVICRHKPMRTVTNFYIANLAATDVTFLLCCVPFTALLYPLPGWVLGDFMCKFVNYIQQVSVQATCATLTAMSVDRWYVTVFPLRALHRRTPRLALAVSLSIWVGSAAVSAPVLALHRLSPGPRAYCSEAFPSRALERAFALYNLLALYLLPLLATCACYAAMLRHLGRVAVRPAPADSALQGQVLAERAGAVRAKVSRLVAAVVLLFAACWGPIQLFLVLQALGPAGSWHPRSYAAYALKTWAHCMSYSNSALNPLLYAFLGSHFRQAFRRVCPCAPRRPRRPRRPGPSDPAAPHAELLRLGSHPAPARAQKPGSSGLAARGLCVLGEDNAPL
Sequence of TRHR (P34981 whole entry): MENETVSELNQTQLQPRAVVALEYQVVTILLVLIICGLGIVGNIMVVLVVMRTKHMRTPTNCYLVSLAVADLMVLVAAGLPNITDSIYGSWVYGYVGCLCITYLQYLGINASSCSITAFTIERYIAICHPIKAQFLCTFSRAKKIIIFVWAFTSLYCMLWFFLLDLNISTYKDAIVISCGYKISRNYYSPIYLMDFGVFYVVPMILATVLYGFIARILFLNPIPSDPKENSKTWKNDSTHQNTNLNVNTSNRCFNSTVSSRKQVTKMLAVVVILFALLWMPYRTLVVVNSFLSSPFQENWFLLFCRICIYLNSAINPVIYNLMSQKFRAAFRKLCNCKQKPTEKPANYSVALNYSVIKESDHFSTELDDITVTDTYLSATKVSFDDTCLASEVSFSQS
Sequence of OXTR (P30559 whole entry): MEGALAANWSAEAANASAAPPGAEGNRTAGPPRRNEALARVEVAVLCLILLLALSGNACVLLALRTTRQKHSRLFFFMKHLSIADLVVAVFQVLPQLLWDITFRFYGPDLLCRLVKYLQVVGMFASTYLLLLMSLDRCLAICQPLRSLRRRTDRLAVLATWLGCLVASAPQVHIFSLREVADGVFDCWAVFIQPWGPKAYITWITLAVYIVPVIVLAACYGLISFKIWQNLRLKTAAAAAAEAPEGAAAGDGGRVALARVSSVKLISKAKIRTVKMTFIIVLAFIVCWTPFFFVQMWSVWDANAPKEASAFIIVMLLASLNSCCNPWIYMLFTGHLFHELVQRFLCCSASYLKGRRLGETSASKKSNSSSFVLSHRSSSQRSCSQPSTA
Sequence of GLP2R (O95838 whole entry): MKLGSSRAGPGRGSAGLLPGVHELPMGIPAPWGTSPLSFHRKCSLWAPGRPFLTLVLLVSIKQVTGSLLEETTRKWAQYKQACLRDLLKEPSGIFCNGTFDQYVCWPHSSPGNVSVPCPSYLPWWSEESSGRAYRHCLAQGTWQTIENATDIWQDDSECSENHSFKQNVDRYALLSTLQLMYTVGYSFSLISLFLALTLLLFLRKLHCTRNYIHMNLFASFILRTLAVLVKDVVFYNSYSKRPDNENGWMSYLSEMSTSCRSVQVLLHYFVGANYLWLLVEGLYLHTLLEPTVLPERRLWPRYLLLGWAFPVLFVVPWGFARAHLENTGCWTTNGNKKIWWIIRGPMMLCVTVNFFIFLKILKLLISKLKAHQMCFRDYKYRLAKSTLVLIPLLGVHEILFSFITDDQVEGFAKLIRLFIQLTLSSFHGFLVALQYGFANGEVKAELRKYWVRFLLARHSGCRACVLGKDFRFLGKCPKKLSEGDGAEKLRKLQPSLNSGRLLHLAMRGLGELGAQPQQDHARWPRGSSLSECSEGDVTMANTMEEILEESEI
Sequence of CCR7 (P32248 25-378 limits assumed): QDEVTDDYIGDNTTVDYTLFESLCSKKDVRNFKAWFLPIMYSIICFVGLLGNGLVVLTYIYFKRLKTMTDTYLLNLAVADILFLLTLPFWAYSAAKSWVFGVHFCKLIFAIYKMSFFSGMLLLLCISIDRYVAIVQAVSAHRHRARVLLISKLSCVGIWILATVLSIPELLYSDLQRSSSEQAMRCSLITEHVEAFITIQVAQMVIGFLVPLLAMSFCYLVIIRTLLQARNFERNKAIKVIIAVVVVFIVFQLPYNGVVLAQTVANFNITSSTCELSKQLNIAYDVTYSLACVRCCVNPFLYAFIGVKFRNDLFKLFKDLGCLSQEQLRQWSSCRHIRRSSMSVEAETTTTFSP
Sequence of CXCR2 (P25025 whole entry): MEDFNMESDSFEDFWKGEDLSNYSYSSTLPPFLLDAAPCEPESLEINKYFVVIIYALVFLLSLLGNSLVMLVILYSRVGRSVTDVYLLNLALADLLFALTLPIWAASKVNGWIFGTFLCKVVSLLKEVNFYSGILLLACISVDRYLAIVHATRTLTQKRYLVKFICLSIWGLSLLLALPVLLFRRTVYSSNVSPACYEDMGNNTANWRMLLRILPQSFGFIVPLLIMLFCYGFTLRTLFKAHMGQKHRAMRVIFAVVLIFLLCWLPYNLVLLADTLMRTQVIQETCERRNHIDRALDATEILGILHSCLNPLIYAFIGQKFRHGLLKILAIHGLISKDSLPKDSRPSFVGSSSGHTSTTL
Sequence of C5aR1 (P21730 whole entry): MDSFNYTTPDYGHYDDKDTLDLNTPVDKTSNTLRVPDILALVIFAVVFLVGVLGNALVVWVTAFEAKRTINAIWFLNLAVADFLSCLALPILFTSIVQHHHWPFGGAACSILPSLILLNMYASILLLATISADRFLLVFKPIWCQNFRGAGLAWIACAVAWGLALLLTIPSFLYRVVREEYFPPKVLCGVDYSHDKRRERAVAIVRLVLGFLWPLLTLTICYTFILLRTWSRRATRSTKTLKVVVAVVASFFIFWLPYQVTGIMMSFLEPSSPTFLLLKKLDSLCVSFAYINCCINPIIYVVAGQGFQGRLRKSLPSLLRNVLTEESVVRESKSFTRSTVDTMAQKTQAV
Sequence of BRS3 (P32247 whole entry): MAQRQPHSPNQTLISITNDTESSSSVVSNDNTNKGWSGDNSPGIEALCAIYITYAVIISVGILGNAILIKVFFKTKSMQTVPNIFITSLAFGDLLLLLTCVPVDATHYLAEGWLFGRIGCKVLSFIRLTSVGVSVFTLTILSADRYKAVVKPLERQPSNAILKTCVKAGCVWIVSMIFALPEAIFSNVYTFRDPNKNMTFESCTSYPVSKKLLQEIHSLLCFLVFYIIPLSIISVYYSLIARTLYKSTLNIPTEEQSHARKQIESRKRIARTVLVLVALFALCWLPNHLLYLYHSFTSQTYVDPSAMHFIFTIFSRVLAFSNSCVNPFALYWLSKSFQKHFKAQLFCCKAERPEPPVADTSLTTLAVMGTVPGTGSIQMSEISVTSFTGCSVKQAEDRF
Sequence of CCL19 (Q99731 22-98 limits assumed): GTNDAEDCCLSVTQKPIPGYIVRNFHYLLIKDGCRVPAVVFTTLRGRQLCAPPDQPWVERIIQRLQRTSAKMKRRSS

“Fractalkine (from UniProt P78423 25-100) (ligand)”: in the assay with CX3CR1, the EC50 (RC50), arrestin, agonist mode stood at 0.444 nM and the EC80, arrestin, agonist mode was 1.45 nM.

With “CXCL8 (from UniProt P10145 28-99) (ligand)”, the EC50 (RC50), arrestin, agonist mode turned out to be 2.8 nM with CXCR1 and 0.304 nM with CXCR2. Moreover, the EC80, arrestin, agonist mode with CXCR1 was 14.8 nM; with CXCR2, 0.968 nM.

In the assay with GPR1, “Chemerin (from UniProt Q99969 21-157) (ligand)” showed an EC50 (RC50), arrestin, agonist mode of 2.26 nM and an EC80, arrestin, agonist mode of 4.67 nM.

“PrRP-31 (from UniProt P81277 23-53) (peptide)” gave an EC80, arrestin, agonist mode in the assay with PRLHR of 10.7 nM.

In the assay with TRHR, “TRH (from UniProt P20396 84-86) (peptide)” showed an EC50 (RC50), arrestin, agonist mode of 2.02 nM and an EC80, arrestin, agonist mode of 7.14 nM.

Take “Motilin (from UniProt P12872 26-47) (peptide)”: in the assay with MLNR, the EC50 (RC50), arrestin, agonist mode stood at 1.59 nM and the EC80, arrestin, agonist mode was 5.63 nM.

In the assay with GRPR, “GRP (from UniProt P07492 24-50) (peptide)” returned an EC50 (RC50), arrestin, agonist mode of 1.62 nM and an EC80, arrestin, agonist mode of 5.92 nM.

Consider TAPN-Bombesin (peptide), for which, in the assay with BRS3, the EC50 (RC50), arrestin, agonist mode was 1.24 nM and the EC80, arrestin, agonist mode is 3.73 nM.

In the case of “Calcitonin (from UniProt P01258 85-116) (peptide)”, the EC80, arrestin, agonist mode with CALCR was 72.9 nM; in the assay with CALCR-RAMP2, 33.7 nM; with CALCR-RAMP3, 384 nM.

Regarding “CCL25 (from UniProt O15444 24-150) (ligand)”, in the assay with CCR9, the EC50 (RC50), arrestin, agonist mode was found to be 173 nM and the EC80, arrestin, agonist mode is 370 nM.

In the assay with NPY1R, Peptide YY (from UniProt P10082 29-64) came in with an EC50 (RC50), arrestin, agonist mode of 3.93 nM and an EC80, arrestin, agonist mode of 12.4 nM.

Take “CCL19 (from UniProt Q99731 22-98) (ligand)”: in the assay with CCR7, the EC50 (RC50), arrestin, agonist mode came to 5.65 nM and the EC80, arrestin, agonist mode came out at 19 nM.

In the assay with GLP2R, “GLP II (1-33) (from UniProt P01275 21-180) (peptide)” gave an EC50 (RC50), arrestin, agonist mode of 2.3 nM and an EC80, arrestin, agonist mode of 8.97 nM.

In the assay with BDKRB2, “Bradykinin (from UniProt P01042 381-389) (peptide)” yielded an EC50 (RC50), arrestin, agonist mode of 5.57 nM and an EC80, arrestin, agonist mode of 9.82 nM.

In the assay with CCR1, “CCL3 (from UniProt P10147 24-92) (ligand)” displayed an EC50 (RC50), arrestin, agonist mode of 1.04 nM and an EC80, arrestin, agonist mode of 2.53 nM. For the same substance, in the assay with CCR5, the EC50 (RC50), arrestin, agonist mode was 7.55 nM and the EC80, arrestin, agonist mode came out at 30.3 nM.

“VIP (from UniProt P01282 125-152) (peptide)”: in the assay with VIPR1, the EC50 (RC50), arrestin, agonist mode stood at 1.73 nM and the EC80, arrestin, agonist mode was 3.69 nM.

On to “Kisspeptin-10 (from UniProt Q15726 112-121) (peptide)”, for which, in the assay with KISS1R, the EC50 (RC50), arrestin, agonist mode amounted to 17.6 nM and the EC80, arrestin, agonist mode is 37.6 nM.

In the case of “Secretin (from UniProt P09683 28-54) (peptide)”, in the assay with SCTR, the EC50 (RC50), arrestin, agonist mode was 1.74 nM and the EC80, arrestin, agonist mode was 9.2 nM.

With “CCL13 (from UniProt Q99616 24-98) (ligand)”, in the assay with CCR3, the EC50 (RC50), arrestin, agonist mode was 40.6 nM and the EC80, arrestin, agonist mode worked out at 140 nM.

In the case of “CCL20 (from UniProt P78556 27-96) (ligand)”, in the assay with CCR6, the EC50 (RC50), arrestin, agonist mode was determined as 2.95 nM and the EC80, arrestin, agonist mode amounted to 14.3 nM.

Take “Orexin A (from UniProt O43612 34-66) (peptide)”: in the assay with HCRTR2, the EC50 (RC50), arrestin, agonist mode was 18.2 nM and the EC80, arrestin, agonist mode amounted to 42.5 nM.

In the assay with C5L2, “Complement C5a (from UniProt P01031 678-751) (ligand)” showed an EC50 (RC50), arrestin, agonist mode of 1.57 nM and an EC80, arrestin, agonist mode of 2.7 nM. In the assay with C5aR1, the EC50 (RC50), arrestin, agonist mode was 1.38 nM and the EC80, arrestin, agonist mode worked out at 3.64 nM.

Turning to “Relaxin-3 (from UniProt Q8WXF3 26-142; Q8WXF3 26-142) (ligand)”, in assay [1], the EC50 (RC50), arrestin, agonist mode is 11.9 nM and the EC80, arrestin, agonist mode turned out to be 62.5 nM.

In the assay with CCR2, “CCL2 (from UniProt P13500 24-99) (ligand)” had an EC50 (RC50), arrestin, agonist mode of 2.63 nM and an EC80, arrestin, agonist mode of 6.92 nM.

For “GIP (from UniProt P09681 52-93) (peptide)”, in the assay with GIPR, the EC50 (RC50), arrestin, agonist mode came to 4.87 nM and the EC80, arrestin, agonist mode was 18.5 nM.

LDA-Bradykinin (peptide): in the assay with BDKRB1, the EC50 (RC50), arrestin, agonist mode was 3.65 nM and the EC80, arrestin, agonist mode came out at 14 nM.

In the case of “Oxytocin (from UniProt P01178 20-28) (peptide)”, in the assay with OXTR, the EC50 (RC50), arrestin, agonist mode is 3.23 nM and the EC80, arrestin, agonist mode was found to be 7.19 nM.

In the assay with GALR2, “Galanin (from UniProt P22466 33-62) (peptide)” registered an EC50 (RC50), arrestin, agonist mode of 6.81 nM and an EC80, arrestin, agonist mode of 12.2 nM.
